Results on one substance are retold here after article PMC6391921.

Common to all, as to test: BLI
For assay [1], the target named is H7ssF_B, H7 stabilized HA stem ferritin nanoparticle, design B (influenza A virus A/Shanghai/2/2013 (H7N9) | not stated) (UniProt Q9ZLI1).
The target of assay [2] is H7ssF_C, H7 stabilized HA stem ferritin nanoparticle, design C (influenza A virus A/Shanghai/2/2013 (H7N9) | not stated) (UniProt Q9ZLI1).
Assay [3] addresses H7ssF_D, H7 stabilized HA stem ferritin nanoparticle, design D (influenza A virus A/Shanghai/2/2013 (H7N9) | not stated) (UniProt Q9ZLI1).
The target in assay [4] is H7ssF_E, H7 stabilized HA stem ferritin nanoparticle, design E (influenza A virus A/Shanghai/2/2013 (H7N9) | not stated) (UniProt Q9ZLI1).
Assay [5] addresses H7ssF_F, H7 stabilized HA stem ferritin nanoparticle, design F (influenza A virus A/Shanghai/2/2013 (H7N9) | not stated) (UniProt Q9ZLI1).
The target of assay [6] is H7ssF_I, H7 stabilized HA stem ferritin nanoparticle, design I (influenza A virus A/Shanghai/2/2013 (H7N9) | not stated) (UniProt Q9ZLI1).
Assay [7] has as its target H7ssF_J, H7 stabilized HA stem ferritin nanoparticle, design J (influenza A virus A/Shanghai/2/2013 (H7N9) | not stated) (UniProt Q9ZLI1).

What is called Kd is the equilibrium constant for the complex coming apart. Read a high Kd as weaker binding. Usually koff stands for a measure of how fast the partners let go of each other. Lower therefore signals a long-lived complex. The kon is the rate constant with which the complex forms. High values mean fast association, low ones slow association. As to CT149 Fab, the dissociation constant Kd in assay [1] was 7 nM; in assay [2], 0.9 nM; in assay [3], 9 nM; in assay [4] it was 8.2 nM; in assay [5], 2.7 nM; in assay [6], 7.2 nM. In addition, the dissociation constant (Kd) in assay [7] is 9.8 nM. Further, the koff came to 0.003 s⁻¹ in assay [1]; 0.00053 s⁻¹ in assay [2]; 0.0033 s⁻¹ in assay [3]; 0.003 s⁻¹ in assay [4]; 0.0018 s⁻¹ in assay [5]; 0.0029 s⁻¹ in assay [6]. The substance also showed an off-rate constant (koff) in assay [7] of 0.0034 s⁻¹. Moreover, the kon in assay [1] is 420000 M⁻¹ s⁻¹; in assay [2], 600000 M⁻¹ s⁻¹; in assay [3], 370000 M⁻¹ s⁻¹; in assay [4] it was 370000 M⁻¹ s⁻¹; in assay [5], 670000 M⁻¹ s⁻¹; in assay [6], 410000 M⁻¹ s⁻¹. Besides, the on-rate constant (kon) in assay [7] was 350000 M⁻¹ s⁻¹.
